Where “and” joins values, the source holds several entries; their conditions need not be identical. Identical values can stand only once.
How the values were obtained:
[1] = system: human leukocyte elastase (HLE); experiment: Anti-elastase activity: inhibition of human leukocyte elastase cleavage of MeO-Suc-Ala-Ala-Pro-Val-p-nitroanilide (A410); type: biochemical
Description: For the assay, extracts were diluted in 50 mM Tris pH8, 50 mM NaCl. […] Assays were initiated by the addition of 0.1 5 μg HLE and were incubated for 15 min at 28° C., terminated by the addition of 100 μl of 8N acetic acid and the absorbance at 410 nm determined (Beatty et al., supra). Protein concentrations were determined as described in Bradford, Anal. Biochem. (1976) 72:248-253. From the amount of human leukocyte elastase activity observed, given the protein concentration of the yeast extracts and the amount of the enzyme added, the percentage of the yeast soluble protein which is α1 -antitrypsin can be calculated. It is assumed that there is 100 percent human leukocyte elastase activity, a 1:1 complex between human leukocyte elastase and α1 -antitrypsin whose molecular weights are 29 kD and 42 kD, respectively.

[2] = system: human leukocyte elastase (HLE); experiment: Oxidation resistance: N-chlorosuccinimide (NCS) treatment, then anti-HLE activity assay; type: biochemical
Description: To determine the anti-elastase activities of the mutant (Val) or wild-type (Met) α1 -antitrypsin, appropriate yeast extracts were incubated with human leukocyte elastase (HLE) and a synthetic peptide substrate the cleavage of which can be assayed at 410 nm (Beatty et al., supra). For the assay, extracts were diluted in 50 mM Tris pH8, 50 mM NaCl. […] Assays were initiated by the addition of 0.1 5 μg HLE and were incubated for 15 min at 28° C., terminated by the addition of 100 μl of 8N acetic acid and the absorbance at 410 nm determined (Beatty et al., supra).
For this purpose, aliquots of the extracts were diluted in 50 mM Tris pH8, 50 mM NaCl, incubated at room temperature for 5 min in 100 μl of 50 mM Tris pH8, with the indicated amount of NCS, and assayed for anti-HLE activity.

## α1 AT: Control human α1-antitrypsin added in μg amounts to the elastase assay
[1]; Table 1, 0.2 μg control human α1 AT, no NCS
  Elastase Activity (%): 67%
[1]; Table 1, 1.0 μg control human α1 AT plus 3.8 μl Cl/l yeast extract, no NCS
  Elastase Activity (%): 12%
[1]; Table 1, 1.0 μg control human α1 AT, no NCS
  Elastase Activity (%): 5% and 0%
[1]; Table 2, 0.5 μg control human α1 AT, NCS -
  Elastase Activity (%): 44%
[1]; Table 2, 1.0 μg control human α1 AT, NCS -
  Elastase Activity (%): 10%
[2]; Table 1, 1.0 μg control human α1 AT plus 3.8 μl Cl/l yeast extract, NCS (10 mM) 10 μl
  Elastase Activity (%): 84%
[2]; Table 1, 1.0 μg control human α1 AT, NCS (10 mM) 10 μl
  Elastase Activity (%): 91%
[2]; Table 2, 0.5 μg control human α1 AT, NCS (10 mM) +
  Elastase Activity (%): 96%

Reference: patent US4732973A, “Active site modified protease α-1-antitrypsin inhibitors” (Chiron Corporation, priority 1984, dated 1988)
